Assay results reported in patent US20240391997A1 (BRIGHTPATH BIOTHERAPEUTICS, published 2024).

Columns and labels:
[1] = biological target: T1, human Tim-3 expressed on cells (Jurkat cells stably expressing, Expi293 cells transiently expressing, … (human, UniProt Q8TDQ0 22-301)); test: flow cytometry on Expi293 cells transiently expressing human Tim-3, KD from MFI curve
T1 construct: whole, on cells; One entry for all cell-surface forms; the cell type is named under assay; also called human Tim-3 expressed on the cell membrane

[2] = biological target: T2, biotinylated human Tim-3-Fc antigen (in-house preparation) (human, biotinylated); test: competition flow cytometry, biotinylated Tim-3-Fc premixed with antibody, binding to phosphatidylserine on apoptotic Jurkat cells (ligand not a protein)
T2 construct: limits of the Tim-3 part not given

[3] = biological target: T1, human Tim-3 expressed on cells (Jurkat …); test: flow cytometry on activated human CD8 T cells, KD from MFI curve
[4] = biological target: T1, human Tim-3 expressed on cells (Jurkat …); test: flow cytometry on activated human CD4 T cells, KD from MFI curve
[5] = biological target: T1, human Tim-3 expressed on cells (Jurkat …); test: flow cytometry on Jurkat cells stably expressing human Tim-3, KD from MFI curve
[6] = biological target: T2, biotinylated human Tim-3-Fc antigen …; test: competition ELISA: biotinylated human Tim-3-Fc premixed with the antibody, added to plate-bound human Galectin-9 (blocked ligand); streptavidin-HRP; Binding (%)
[7] = biological target: T3, human Tim-3 IgV domain (aa. 22-130) (human, UniProt Q8TDQ0 22-130); test: gel filtration of the complex and X-ray crystallography, 2.11 angstrom
T3 construct: range 22-130

Kd [1] | IC50 [2] | Kd [3] | Kd [4] | Kd [5] | IC50 (read off the curve) [6] | binding result [7] | Binder
0.891 nM | 9.91 nM | 0.112 nM | 0.105 nM | 0.0828 nM | ~0.5 nM |  | Ch003-LA antibody (antibody, V domains shown, IgG1_LALA type antibody (L234A and L235A in the Fc region of IgG1)) VH: EVMLMESGGGLVKLGGSLKLSCAASGFTFSSYYMSWVRQTPEKRLEWVATISNSGGSIYYLDSVKDRFTISRDNAKNTLYLQMSSLNSEDTAVYYCARDPYYSNYVPMDYWGQGTSVTVSS VL: SIVMTQTPKFMSTSVGDRVSVTCKASQYVDTYVAWYQQKPGQSPKPLIYSASTRHTGVPARFTGSGSGTDFTLTISNVQSEDLAEYFCAQYSSSPLTFGAGTKLELK
 |  |  |  |  |  | binds | Hu149_83_scFv antibody (scFv, not shown: small tags and cut ends, Secreted from E. coli with an N-terminal pelB leader (left out)) scFv: QVQLVQSGAEVKKPGASVKVSCKASGYTFTDYYMDWVRQAPGQGLEWLGYIYPNKGGTSYNQKFKGRVTMTTDKSTSTAYMELRSLRSDDTAVYYCARSGYGNYYTMDYWGQGTTVTVSSGGGGSGGGGSGGGGSGGGGSDIVMTQSQKFMSTSVGDRVSITCKASQSVGNNVAWYQQKPGQSPKLLIYYASNRYTGVPDRFTGSGSGTDFTLTISNMQSEDLADYFCQQHYSSPSTFGGGTKLEIK
